Assays:
cSNK:BSA conjugate [1] = molecular target: T1, cSNK:BSA conjugate (bovine, head-to-tail cyclized; conjugated to BSA carrier); test: BLI (Octet), KD1
T1 construct: also called BSA-cSNK

cSNK:BSA conjugate [2] = molecular target: T1, cSNK:BSA conjugate; test: BLI (Octet), KD2

T1 sequence (P02769 25-607 limits assumed): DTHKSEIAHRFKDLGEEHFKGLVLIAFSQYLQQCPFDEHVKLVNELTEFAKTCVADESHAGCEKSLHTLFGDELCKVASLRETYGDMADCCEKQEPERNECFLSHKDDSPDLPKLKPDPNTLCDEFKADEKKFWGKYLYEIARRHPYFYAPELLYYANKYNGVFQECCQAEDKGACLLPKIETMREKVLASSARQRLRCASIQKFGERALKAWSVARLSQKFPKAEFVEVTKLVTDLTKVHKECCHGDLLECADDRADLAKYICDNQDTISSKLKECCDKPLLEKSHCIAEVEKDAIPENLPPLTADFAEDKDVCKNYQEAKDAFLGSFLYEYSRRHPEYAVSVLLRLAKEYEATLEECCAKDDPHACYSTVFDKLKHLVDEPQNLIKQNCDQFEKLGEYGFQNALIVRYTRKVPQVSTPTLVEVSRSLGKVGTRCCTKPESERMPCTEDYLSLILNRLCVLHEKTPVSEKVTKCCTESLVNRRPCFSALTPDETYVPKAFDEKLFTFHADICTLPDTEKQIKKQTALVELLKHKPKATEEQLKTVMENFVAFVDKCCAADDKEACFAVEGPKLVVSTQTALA

Kd (cSNK:BSA conjugate [1]) [nM] | Kd (cSNK:BSA conjugate [2]) [nM] | Binder
0.214 | 3.41 | 5E3HCDR1-S184D (antibody, V domains shown, hu5E3 IgG1 vector mutant; also called 5E3-S184D-AFF) VH: QVQLQQSGPEVKKPGASVKISCKASGYIFTDYYIQWVIHAPGQGLEWIGWIYPGNVNTKYNEKFKGKATLTADKSSSTAYMELSSLTSEDTAVYFCARMDYEAHYWGQGTTVTVSS VL: DIQMTQSPSSLSASVGDRVTITCRASQEISGYLTWLQQKPEGAIKRLIYAASTLDSGVPKRFSGSRSGSDYSLTISSLQPEDFATYNCLQYANYPRTFGGGTKLEIK
0.0194 | 2.41 | 5E3KCDR3-N93D + 5E3HCDR3-Y212F (antibody, IgG1, V domains shown, double combination in hu5E3 IgG1) VH: QVQLQQSGPEVKKPGASVKISCKASGYIFTSYYIQWVIHAPGQGLEWIGWIYPGNVNTKYNEKFKGKATLTADKSSSTAYMELSSLTSEDTAVYFCARMDYEAHFWGQGTTVTVSS VL: DIQMTQSPSSLSASVGDRVTITCRASQEISGYLTWLQQKPEGAIKRLIYAASTLDSGVPKRFSGSRSGSDYSLTISSLQPEDFATYNCLQYADYPRTFGGGTKLEIK
1.73 | 9.97 | 5E3HCDR3-A210G (antibody, IgG1, V domains shown, hu5E3 IgG1 vector mutant) VH: QVQLQQSGPEVKKPGASVKISCKASGYIFTSYYIQWVIHAPGQGLEWIGWIYPGNVNTKYNEKFKGKATLTADKSSSTAYMELSSLTSEDTAVYFCARMDYEGHYWGQGTTVTVSS VL: DIQMTQSPSSLSASVGDRVTITCRASQEISGYLTWLQQKPEGAIKRLIYAASTLDSGVPKRFSGSRSGSDYSLTISSLQPEDFATYNCLQYANYPRTFGGGTKLEIK
0.0201 | 2.8 | 5E3KCDR3-N93Q + 5E3HCDR3-Y212F (antibody, IgG1, V domains shown, double combination in hu5E3 IgG1) VH: QVQLQQSGPEVKKPGASVKISCKASGYIFTSYYIQWVIHAPGQGLEWIGWIYPGNVNTKYNEKFKGKATLTADKSSSTAYMELSSLTSEDTAVYFCARMDYEAHFWGQGTTVTVSS VL: DIQMTQSPSSLSASVGDRVTITCRASQEISGYLTWLQQKPEGAIKRLIYAASTLDSGVPKRFSGSRSGSDYSLTISSLQPEDFATYNCLQYAQYPRTFGGGTKLEIK
1.86 | 6.05 | 5E3HCDR3-E209Q (antibody, IgG1, V domains shown, hu5E3 IgG1 vector mutant) VH: QVQLQQSGPEVKKPGASVKISCKASGYIFTSYYIQWVIHAPGQGLEWIGWIYPGNVNTKYNEKFKGKATLTADKSSSTAYMELSSLTSEDTAVYFCARMDYQAHYWGQGTTVTVSS VL: DIQMTQSPSSLSASVGDRVTITCRASQEISGYLTWLQQKPEGAIKRLIYAASTLDSGVPKRFSGSRSGSDYSLTISSLQPEDFATYNCLQYANYPRTFGGGTKLEIK
< 0.001 | 1.93 | 5E3KCDR3-A116Y (antibody, IgG1, V domains shown, hu5E3 IgG1 vector mutant) VH: QVQLQQSGPEVKKPGASVKISCKASGYIFTSYYIQWVIHAPGQGLEWIGWIYPGNVNTKYNEKFKGKATLTADKSSSTAYMELSSLTSEDTAVYFCARMDYEAHYWGQGTTVTVSS VL: DIQMTQSPSSLSASVGDRVTITCRASQEISGYLTWLQQKPEGAIKRLIYAASTLDSGVPKRFSGSRSGSDYSLTISSLQPEDFATYNCLQYYNYPRTFGGGTKLEIK
4.25 | 9.9 | 5E3KCDR3-N93D (antibody, IgG1, V domains shown, hu5E3 IgG1 vector mutant; same change as 5E3KCDR3-N117D) VH: QVQLQQSGPEVKKPGASVKISCKASGYIFTSYYIQWVIHAPGQGLEWIGWIYPGNVNTKYNEKFKGKATLTADKSSSTAYMELSSLTSEDTAVYFCARMDYEAHYWGQGTTVTVSS VL: DIQMTQSPSSLSASVGDRVTITCRASQEISGYLTWLQQKPEGAIKRLIYAASTLDSGVPKRFSGSRSGSDYSLTISSLQPEDFATYNCLQYADYPRTFGGGTKLEIK
0.0138 | 3.05 | 5E3KCDR2-S80Y (antibody, IgG1, V domains shown, hu5E3 IgG1 vector mutant) VH: QVQLQQSGPEVKKPGASVKISCKASGYIFTSYYIQWVIHAPGQGLEWIGWIYPGNVNTKYNEKFKGKATLTADKSSSTAYMELSSLTSEDTAVYFCARMDYEAHYWGQGTTVTVSS VL: DIQMTQSPSSLSASVGDRVTITCRASQEISGYLTWLQQKPEGAIKRLIYAASTLDYGVPKRFSGSRSGSDYSLTISSLQPEDFATYNCLQYANYPRTFGGGTKLEIK
1.58 | 8.25 | 5E3HCDR3-Y212F (antibody, IgG1, V domains shown, hu5E3 IgG1 vector mutant) VH: QVQLQQSGPEVKKPGASVKISCKASGYIFTSYYIQWVIHAPGQGLEWIGWIYPGNVNTKYNEKFKGKATLTADKSSSTAYMELSSLTSEDTAVYFCARMDYEAHFWGQGTTVTVSS VL: DIQMTQSPSSLSASVGDRVTITCRASQEISGYLTWLQQKPEGAIKRLIYAASTLDSGVPKRFSGSRSGSDYSLTISSLQPEDFATYNCLQYANYPRTFGGGTKLEIK
3.21 | 9.13 | 5E3HCDR3-E209D (antibody, IgG1, V domains shown, hu5E3 IgG1 vector mutant; same change as 5E3HCDR3-E255D) VH: QVQLQQSGPEVKKPGASVKISCKASGYIFTSYYIQWVIHAPGQGLEWIGWIYPGNVNTKYNEKFKGKATLTADKSSSTAYMELSSLTSEDTAVYFCARMDYDAHYWGQGTTVTVSS VL: DIQMTQSPSSLSASVGDRVTITCRASQEISGYLTWLQQKPEGAIKRLIYAASTLDSGVPKRFSGSRSGSDYSLTISSLQPEDFATYNCLQYANYPRTFGGGTKLEIK
19.8 |  | 5E3KCDR3-L89I + 5E3HCDR3-E209Q (antibody, IgG1, V domains shown, double combination in hu5E3 IgG1) VH: QVQLQQSGPEVKKPGASVKISCKASGYIFTSYYIQWVIHAPGQGLEWIGWIYPGNVNTKYNEKFKGKATLTADKSSSTAYMELSSLTSEDTAVYFCARMDYQAHYWGQGTTVTVSS VL: DIQMTQSPSSLSASVGDRVTITCRASQEISGYLTWLQQKPEGAIKRLIYAASTLDSGVPKRFSGSRSGSDYSLTISSLQPEDFATYNCIQYANYPRTFGGGTKLEIK
21.5 | 0.001 | 5E3HCDR3-Y208F (antibody, IgG1, V domains shown, hu5E3 IgG1 vector mutant) VH: QVQLQQSGPEVKKPGASVKISCKASGYIFTSYYIQWVIHAPGQGLEWIGWIYPGNVNTKYNEKFKGKATLTADKSSSTAYMELSSLTSEDTAVYFCARMDFEAHYWGQGTTVTVSS VL: DIQMTQSPSSLSASVGDRVTITCRASQEISGYLTWLQQKPEGAIKRLIYAASTLDSGVPKRFSGSRSGSDYSLTISSLQPEDFATYNCLQYANYPRTFGGGTKLEIK
9.12 | 0.76 | 5E3KCDR3-N93Q (antibody, IgG1, V domains shown, hu5E3 IgG1 vector mutant) VH: QVQLQQSGPEVKKPGASVKISCKASGYIFTSYYIQWVIHAPGQGLEWIGWIYPGNVNTKYNEKFKGKATLTADKSSSTAYMELSSLTSEDTAVYFCARMDYEAHYWGQGTTVTVSS VL: DIQMTQSPSSLSASVGDRVTITCRASQEISGYLTWLQQKPEGAIKRLIYAASTLDSGVPKRFSGSRSGSDYSLTISSLQPEDFATYNCLQYAQYPRTFGGGTKLEIK
0.0192 | 2.33 | 5E3KCDR2-G81D (antibody, IgG1, V domains shown, hu5E3 IgG1 vector mutant; also called 5E3-G81D-AFF) VH: QVQLQQSGPEVKKPGASVKISCKASGYIFTSYYIQWVIHAPGQGLEWIGWIYPGNVNTKYNEKFKGKATLTADKSSSTAYMELSSLTSEDTAVYFCARMDYEAHYWGQGTTVTVSS VL: DIQMTQSPSSLSASVGDRVTITCRASQEISGYLTWLQQKPEGAIKRLIYAASTLDSDVPKRFSGSRSGSDYSLTISSLQPEDFATYNCLQYANYPRTFGGGTKLEIK
0.021 | 4.2 | 5E3KCDR3-L89I + 5E3HCDR3-Y212F (antibody, IgG1, V domains shown, double combination in hu5E3 IgG1) VH: QVQLQQSGPEVKKPGASVKISCKASGYIFTSYYIQWVIHAPGQGLEWIGWIYPGNVNTKYNEKFKGKATLTADKSSSTAYMELSSLTSEDTAVYFCARMDYEAHFWGQGTTVTVSS VL: DIQMTQSPSSLSASVGDRVTITCRASQEISGYLTWLQQKPEGAIKRLIYAASTLDSGVPKRFSGSRSGSDYSLTISSLQPEDFATYNCIQYANYPRTFGGGTKLEIK
0.0171 | 2.36 | 5E3HCDR2-K212D (antibody, IgG1, V domains shown, hu5E3 IgG1 vector mutant; also called 5E3-K212D-AFF) VH: QVQLQQSGPEVKKPGASVKISCKASGYIFTSYYIQWVIHAPGQGLEWIGWIYPGNVNTDYNEKFKGKATLTADKSSSTAYMELSSLTSEDTAVYFCARMDYEAHYWGQGTTVTVSS VL: DIQMTQSPSSLSASVGDRVTITCRASQEISGYLTWLQQKPEGAIKRLIYAASTLDSGVPKRFSGSRSGSDYSLTISSLQPEDFATYNCLQYANYPRTFGGGTKLEIK
0.0269 | 3.95 | 5E3KCDR2-S80D (antibody, IgG1, V domains shown, hu5E3 IgG1 vector mutant; also called 5E3-S80D-AFF) VH: QVQLQQSGPEVKKPGASVKISCKASGYIFTSYYIQWVIHAPGQGLEWIGWIYPGNVNTKYNEKFKGKATLTADKSSSTAYMELSSLTSEDTAVYFCARMDYEAHYWGQGTTVTVSS VL: DIQMTQSPSSLSASVGDRVTITCRASQEISGYLTWLQQKPEGAIKRLIYAASTLDDGVPKRFSGSRSGSDYSLTISSLQPEDFATYNCLQYANYPRTFGGGTKLEIK
0.0107 | 2.4 | 5E3HCDR2-V209Y (antibody, IgG1, V domains shown, hu5E3 IgG1 vector mutant) VH: QVQLQQSGPEVKKPGASVKISCKASGYIFTSYYIQWVIHAPGQGLEWIGWIYPGNYNTKYNEKFKGKATLTADKSSSTAYMELSSLTSEDTAVYFCARMDYEAHYWGQGTTVTVSS VL: DIQMTQSPSSLSASVGDRVTITCRASQEISGYLTWLQQKPEGAIKRLIYAASTLDSGVPKRFSGSRSGSDYSLTISSLQPEDFATYNCLQYANYPRTFGGGTKLEIK
0.302 | 3.06 | 5E3KCDR2-A74D (antibody, IgG1, V domains shown, hu5E3 IgG1 vector mutant; also called 5E3-A74D-AFF) VH: QVQLQQSGPEVKKPGASVKISCKASGYIFTSYYIQWVIHAPGQGLEWIGWIYPGNVNTKYNEKFKGKATLTADKSSSTAYMELSSLTSEDTAVYFCARMDYEAHYWGQGTTVTVSS VL: DIQMTQSPSSLSASVGDRVTITCRASQEISGYLTWLQQKPEGAIKRLIYDASTLDSGVPKRFSGSRSGSDYSLTISSLQPEDFATYNCLQYANYPRTFGGGTKLEIK
0.0333 | 2.57 | 5E3HCDR3-E255D (antibody, IgG1, V domains shown, hu5E3 IgG1 vector mutant; same change as 5E3HCDR3-E209D; also called 5E3-E255D-AFF) VH: QVQLQQSGPEVKKPGASVKISCKASGYIFTSYYIQWVIHAPGQGLEWIGWIYPGNVNTKYNEKFKGKATLTADKSSSTAYMELSSLTSEDTAVYFCARMDYDAHYWGQGTTVTVSS VL: DIQMTQSPSSLSASVGDRVTITCRASQEISGYLTWLQQKPEGAIKRLIYAASTLDSGVPKRFSGSRSGSDYSLTISSLQPEDFATYNCLQYANYPRTFGGGTKLEIK
1.62 | 17.4 | 5E3KCDR3-L89I (antibody, IgG1, V domains shown, hu5E3 IgG1 vector mutant) VH: QVQLQQSGPEVKKPGASVKISCKASGYIFTSYYIQWVIHAPGQGLEWIGWIYPGNVNTKYNEKFKGKATLTADKSSSTAYMELSSLTSEDTAVYFCARMDYEAHYWGQGTTVTVSS VL: DIQMTQSPSSLSASVGDRVTITCRASQEISGYLTWLQQKPEGAIKRLIYAASTLDSGVPKRFSGSRSGSDYSLTISSLQPEDFATYNCIQYANYPRTFGGGTKLEIK
